Measurements from patent publication US20200140562A1 (Innovent, published 2020).

B1: ADI-20112, IgG2 format (antibody)
heavy: QVQLVESGGGVVQPGRSLRLSCAASGFTFSSYGMHWVRQAPGKGLEWVAVISYDGSNKYYADSVKGRFTISRDNSKNTLYLQMNSLRAEDTAVYYCARGRPWYSETGTSAFDIWGQGTMVTVSSASTKGPSVFPLAPCSRSTSESTAALGCLVKDYFPEPVTVSWNSGALTSGVHTFPAVLQSSGLYSLSSVVTVPSSNFGTQTYTCNVDHKPSNTKVDKTVERKCCVECPPCPAPPVAGPSVFLFPPKPKDTLMISRTPEVTCVVVDVSHEDPEVQFNWYVDGVEVHNAKTKPREEQFNSTFRVVSVLTVVHQDWLNGKEYKCKVSNKGLPAPIEKTISKTKGQPREPQVYTLPPSREEMTKNQVSLTCLVKGFYPSDIAVEWESNGQPENNYKTTPPMLDSDGSFFLYSKLTVDKSRWQQGNVFSCSVMHEALHNHYTQKSLSLSPG
light: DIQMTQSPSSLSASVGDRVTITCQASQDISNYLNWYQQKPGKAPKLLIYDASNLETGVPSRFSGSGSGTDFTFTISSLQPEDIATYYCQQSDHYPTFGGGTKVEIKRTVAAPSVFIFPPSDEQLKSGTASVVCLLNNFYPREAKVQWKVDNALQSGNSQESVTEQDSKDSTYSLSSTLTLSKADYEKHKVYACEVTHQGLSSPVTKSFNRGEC
notes: Made in 293HEK or CHO cells; also called ADI-20112-g2
B2: ADI-20065, IgG1 format (antibody, V domains shown)
VH: QLQLQESGPGLVKPSETLSLTCTVSGGSISSSSYYWGWIRQPPGKGLEWIGSIYYSGSTYYNPSLKSRVTISVDTSKNQFSLKLSSVTAADTAVYYCARDPGYSASPNWFDPWGQGTLVTVSS
VL: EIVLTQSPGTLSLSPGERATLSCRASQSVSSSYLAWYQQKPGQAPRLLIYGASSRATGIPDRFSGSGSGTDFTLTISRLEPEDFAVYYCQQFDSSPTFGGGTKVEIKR
notes: Made in yeast
B3: ADI-20066, IgG1 format (antibody, V domains shown)
VH: QLQLQESGPGLVKPSETLSLTCTVSGGSISSSSYYWGWIRQPPGKGLEWIGSIYYSGSTYYNPSLKSRVTISVDTSKNQFSLKLSSVTAADTAVYYCARDPGYSASPNWFDPWGQGTLVTVSS
VL: EIVLTQSPGTLSLSPGERATLSCRASQSVSSSFLAWYQQKPGQAPRLLIYGASSRATGIPDRFSGSGSGTDFTLTISRLEPEDFAVYYCQQYDVFPITFGGGTKVEIKR
notes: Made in yeast
B4: ADI-20113, IgG1 format (antibody, V domains shown)
VH: QVQLVESGGGVVQPGRSLRLSCAASGFTFSSYGMHWVRQAPGKGLEWVAVISYDGSNKYYADSVKGRFTISRDNSKNTLYLQMNSLRAEDTAVYYCARGRPWYSETGTSAFDIWGQGTMVTVSS
VL: EIVMTQSPATLSVSPGERATLSCRASQSVSSNLAWYQQKPGQAPRLLIYSASTRATGIPARFSGSGSGTEFTLTISSLQSEDFAVYYCQQHNVYPPYTFGGGTKVEIKR
notes: Made in yeast

What was measured:
[1] = target: T1, human OX40 on cells (CHO-hOX40, 293HEK-hOX40, Jurkat-hOX40, activated primary CD4+ T cells) (human, UniProt P43489 29-277); experiment: flow cytometry, CHO-hOX40, IgG2 made in 293HEK
T1 construct: whole, on cells; The cell type is told in each assay; also called CHO-OX40
T1 sequence (looked up): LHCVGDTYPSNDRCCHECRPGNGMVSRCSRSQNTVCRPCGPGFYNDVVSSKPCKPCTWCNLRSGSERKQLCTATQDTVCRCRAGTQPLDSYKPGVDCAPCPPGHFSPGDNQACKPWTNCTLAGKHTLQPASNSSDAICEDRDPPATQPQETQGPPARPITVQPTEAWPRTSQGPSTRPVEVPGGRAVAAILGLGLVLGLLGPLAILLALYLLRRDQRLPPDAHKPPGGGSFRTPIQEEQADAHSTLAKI

[2] = target: T1, human OX40 on cells (CHO-hOX40, …); experiment: flow cytometry, CHO-hOX40, 0.09765625 nM
[3] = target: T1, human OX40 on cells (CHO-hOX40, …); experiment: flow cytometry, CHO-hOX40, 0.1953125 nM
[4] = target: T1, human OX40 on cells (CHO-hOX40, …); experiment: flow cytometry, CHO-hOX40, 1.5625 nM
[5] = target: T1, human OX40 on cells (CHO-hOX40, …); experiment: flow cytometry, CHO-hOX40, 0.390625 nM
[6] = target: T1, human OX40 on cells (CHO-hOX40, …); experiment: flow cytometry, CHO-hOX40, 3.125 nM
[7] = target: T1, human OX40 on cells (CHO-hOX40, …); experiment: flow cytometry, CHO-hOX40, 12.5 nM
[8] = target: T1, human OX40 on cells (CHO-hOX40, …); experiment: flow cytometry, CHO-hOX40, 0.78125 nM
[9] = target: T1, human OX40 on cells (CHO-hOX40, …); experiment: cell-based or functional assay
[10] = target: T1, human OX40 on cells (CHO-hOX40, …); experiment: flow cytometry, CHO-hOX40, 0.024414063 nM
[11] = target: T1, human OX40 on cells (CHO-hOX40, …); experiment: flow cytometry, CHO-hOX40, 200 nM
[12] = target: T1, human OX40 on cells (CHO-hOX40, …); experiment: flow cytometry, CHO-hOX40, 50 nM
[13] = target: T1, human OX40 on cells (CHO-hOX40, …); experiment: flow cytometry, CHO-hOX40, 0.048828125 nM
[14] = target: T1, human OX40 on cells (CHO-hOX40, …); experiment: flow cytometry, CHO-hOX40, 100 nM
[15] = target: T1, human OX40 on cells (CHO-hOX40, …); experiment: flow cytometry, CHO-hOX40, 25 nM
[16] = target: T1, human OX40 on cells (CHO-hOX40, …); experiment: flow cytometry, CHO-hOX40, 6.25 nM
[17] = target: T1, human OX40 on cells (CHO-hOX40, …); experiment: flow cytometry, CHO-hOX40, 100 nM blocker, competitor OX40L-hFc-fluorescein
[18] = target: T2, human OX40_Fc (R&D Systems) (human, UniProt P43489 29-216); experiment: BLI, IgG1 on tip, hOX40-Fc 50 nM, avid
T2 construct: Bought

[19] = target: T1, human OX40 on cells (CHO-hOX40, …); experiment: flow cytometry, activated CD4+ T cells, donor 2, 100 nM
[20] = target: T1, human OX40 on cells (CHO-hOX40, …); experiment: flow cytometry, CHO-hOX40, 100 nM; remark: listed apart in the source
[21] = target: T3, cyno OX40_Fc (Acro Biosystems) (cyno); experiment: BLI, IgG1 on tip, cyno OX40-Fc 100 nM, avid
T3 construct: Bought

[22] = target: T1, human OX40 on cells (CHO-hOX40, …); experiment: cell-based or functional assay; remark: listed apart in the source
[23] = target: T1, human OX40 on cells (CHO-hOX40, …); experiment: flow cytometry, MFI on CHO-hOX40 over wild-type CHO
[24] = target: T1, human OX40 on cells (CHO-hOX40, …); experiment: flow cytometry, 293HEK-hOX40, 8 nM
[25] = target: T1, human OX40 on cells (CHO-hOX40, …); experiment: flow cytometry, activated CD4+ T cells, donor 1, 100 nM
[26] = target: T1, human OX40 on cells (CHO-hOX40, …); experiment: flow cytometry, 293HEK-hOX40, 1.6 nM
[27] = target: T1, human OX40 on cells (CHO-hOX40, …); experiment: flow cytometry, 293HEK-hOX40, 40 nM
[28] = target: T4, mouse OX40Fc (Acro Biosystems) (mouse, UniProt P47741 20-211, limits assumed); experiment: BLI, IgG1 on tip, mouse OX40-Fc in solution
T4 construct: Bought; not shown: Fc
T4 sequence (looked up): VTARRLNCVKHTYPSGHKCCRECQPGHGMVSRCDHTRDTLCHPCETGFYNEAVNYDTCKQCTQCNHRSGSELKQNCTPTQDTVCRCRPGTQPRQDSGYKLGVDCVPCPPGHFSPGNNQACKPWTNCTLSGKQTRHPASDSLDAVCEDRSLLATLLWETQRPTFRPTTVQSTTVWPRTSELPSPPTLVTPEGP

[29] = target: T1, human OX40 on cells (CHO-hOX40, …); experiment: flow cytometry, 293HEK-hOX40, 200 nM

| Binder | MFI of OX40L signal on CHO-OX40 cells [17] [MFI] | Kd [18] [nM] | MFI [19] [MFI] | CHO-OX40 binding intensity (MFI) [20] [MFI] | Kd [21] [nM] | NFkB-Luc fold change in Jurkat stimulated by PHA+ anti-CD28 [22] [fold over IgG4 control] | NFkB-Luc fold change in Jurkat stimulated by anti-CD3+ anti-CD28 [22] [fold over IgG4 control] | Fold difference [23] [fold] | MFI [24] [MFI] | MFI [25] [MFI] | MFI [26] [MFI] | MFI [27] [MFI] | binding result [28] | MFI [29] [MFI] | further results |
| --- | --- | --- | --- | --- | --- | --- | --- | --- | --- | --- | --- | --- | --- | --- | --- |
| B1 |  |  |  |  |  |  |  |  |  |  |  |  |  |  | EC50 [1]: 2.78 nM; MFI [2]: 48500 MFI; MFI [3]: 94200 MFI; MFI [4]: 602000 MFI; MFI [5]: 189000 MFI; MFI [6]: 985000 MFI; MFI [7]: 1.34e+06 MFI; MFI [8]: 314000 MFI; EC50, NFkB-luciferase reporter in Jurkat-hOX40 mixed with Raji cells [9]: 0.246 nM; MFI [10]: 24600 MFI; MFI [11]: 1.79e+06 MFI; MFI [12]: 1.55e+06 MFI; MFI [13]: 25700 MFI; MFI [14]: 1.78e+06 MFI; MFI [15]: 1.83e+06 MFI; MFI [16]: 1.43e+06 MFI |
| B2 | 33700 | 0.352 | 209000 | 157000 | 5.77 | 2.11 | 1.19 | 2240 | 2.46e+06 | 153000 | 808000 | 2.42e+06 | no binding (tested: 100 nM) | 3.03e+06 |  |
| B3 | 32800 | 0.91 | 193000 | 161000 | 14.3 | 2.09 | 1.96 | 2750 | 2.82e+06 | 134000 | 626000 | 2.39e+06 | no binding (tested: 100 nM) | 2.55e+06 |  |
| B4 | 24000 | 1.22 | 115000 | 152000 | 5.52 | 3.79 | 3.98 | 2460 | 2e+06 | 84400 | 734000 | 2.18e+06 | no binding (tested: 100 nM) | 2.41e+06 |  |
